Reference: PMC10524338 (Structure (London, England : 1993), 2023)
Substitutions are numbered along the chain they refer to. Names and notes keep the numbering of the source. Each block holds one binder with its values, some of them ahead of it.

How the values were obtained:
[1] = target: T1, Karyopherin-β2 (Kapβ2), wild type, GST tag removed (UniProt Q92973-2 1-890); assay: ITC
T1 sequence (looked up): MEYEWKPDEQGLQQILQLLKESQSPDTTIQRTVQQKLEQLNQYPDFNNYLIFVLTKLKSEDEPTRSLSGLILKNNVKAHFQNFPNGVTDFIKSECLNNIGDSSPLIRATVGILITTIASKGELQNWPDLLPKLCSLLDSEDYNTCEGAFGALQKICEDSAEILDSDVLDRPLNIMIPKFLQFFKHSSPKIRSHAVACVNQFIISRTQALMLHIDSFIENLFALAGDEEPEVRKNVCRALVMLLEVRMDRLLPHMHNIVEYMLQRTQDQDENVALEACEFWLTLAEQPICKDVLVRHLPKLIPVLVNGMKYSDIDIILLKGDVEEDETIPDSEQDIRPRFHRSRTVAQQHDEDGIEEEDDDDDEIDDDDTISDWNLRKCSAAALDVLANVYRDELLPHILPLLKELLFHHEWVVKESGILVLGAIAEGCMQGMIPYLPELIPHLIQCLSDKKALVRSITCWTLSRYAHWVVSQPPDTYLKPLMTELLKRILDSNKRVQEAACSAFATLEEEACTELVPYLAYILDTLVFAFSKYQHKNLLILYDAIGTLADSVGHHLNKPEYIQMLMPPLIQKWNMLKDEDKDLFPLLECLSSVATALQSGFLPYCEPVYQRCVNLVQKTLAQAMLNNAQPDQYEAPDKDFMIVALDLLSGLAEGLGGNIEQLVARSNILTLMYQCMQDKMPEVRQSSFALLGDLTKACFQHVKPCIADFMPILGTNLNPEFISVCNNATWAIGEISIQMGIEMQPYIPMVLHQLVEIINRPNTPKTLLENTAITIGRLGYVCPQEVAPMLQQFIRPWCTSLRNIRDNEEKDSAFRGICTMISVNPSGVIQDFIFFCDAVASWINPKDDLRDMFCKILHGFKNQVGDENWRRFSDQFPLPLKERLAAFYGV

[2] = target: T2, Kapβ2(W373A), GST tag removed (UniProt Q92973-2 1-890, W373A); assay: ITC
T2 sequence (looked up): T1 sequence (looked up) with W373A

[3] = target: T1, Karyopherin-β2 (Kapβ2), wild type, GST …; assay: cryo-EM structure
GST-Kapβ2 = target: T3, GST-Kapβ2 (UniProt Q92973-2 1-890); assay: pull-down
T3 sequence (looked up): T1 sequence (looked up)

Kd [1]: 0.05 µM | Kd [2]: 6.1 µM
B1: MBP-HNRNPH2(103-225) WT (domain or fragment, UniProt P55795 103-225, looked up)
chain: NSPDTANDGFVRLRGLPFGCSKEEIVQFFSGLEIVPNGMTLPVDFQGRSTGEAFVQFASQEIAEKALKKHKERIGHRYIEIFKSSRAEVRTHYDPPRKLMAMQRPGPYDRPGAGRGYNSIGRG

binding result [3]: binds
B2: HNRNPH2(103-225) as in the cryo-EM sample (domain or fragment, UniProt P55795 103-225, looked up)
chain: B1 chain
modifications: mildly cross-linked to Kapβ2 with 0.025% glutaraldehyde

binding result (GST-Kapβ2): binds
B3: MBP-HNRNPH2(103-225) R212K (domain or fragment, UniProt P55795 103-225, looked up)
chain: B1 chain with R110K

binding result (GST-Kapβ2): binds
B4: MBP-HNRNPH2(103-225) P213A (domain or fragment, UniProt P55795 103-225, looked up)
chain: B1 chain with P111A

Kd [1]: 3.2 µM
B5: MBP-HNRNPH2(103-225) R212A (domain or fragment, UniProt P55795 103-225, looked up)
chain: B1 chain with R110A

Kd [1]: 5.2 µM
B6: MBP-HNRNPH2(103-225) R206W (domain or fragment, UniProt P55795 103-225, looked up)
chain: B1 chain with R104W

Kd [1]: 3.6 µM
B7: MBP-HNRNPH2(103-225) R206Q (domain or fragment, UniProt P55795 103-225, looked up)
chain: B1 chain with R104Q

Kd [1]: 16.3 µM
B8: MBP-HNRNPH2(103-225) P209L (domain or fragment, UniProt P55795 103-225, looked up)
chain: B1 chain with P107L

Kd [1]: 0.04 µM
Binder: EVRTHYDPPRKLMAMQRPGPYDRPGAGRGYNSIGRG (domain or fragment, UniProt P55795 190-225, looked up) [MBP-HNRNPH2 PY-NLS (190-225)]

Kd [1]: 0.009 µM | Kd [2]: 0.0045 µM
Binder: ERPAQNEKRKEKNIKRGGNRFEPYANPTKR (domain or fragment, UniProt P52272 41-70, looked up) [MBP-HNRNPM PY-NLS (41-70)]
